Assay results reported in paper PMC3240985.

Substrate: O=C(O)[C@@H](COP(=O)(O)O)O[C@H]1O[C@H](CO)[C@@H](O)[C@H](O)[C@H]1O
Experiment: purified protein
Conditions: pH 7.5; 37.0 °C

B1: mGpgP (Rv2419c), recombinant GpgP from M. tuberculosis (Mycobacterium tuberculosis H37Rv) (protein)
chain: MRARRLVMLRHGQTDYNVGSRMQGQLDTELSELGRTQAVAAAEVLGKRQPLLIVSSDLRRAYDTAVKLGERTGLVVRVDTRLRETHLGDWQGLTHAQIDADAPGARLAWREDATWAPHGGESRVDVAARSRPLVAELVASEPEWGGADEPDRPVVLVAHGGLIAALSAALLKLPVANWPALGGMGNASWTQLSGHWAPGSDFESIRWRLDVWNASAQVSSDVL
Protein B1 has a Km of 350 ± 30 µM.
